Data taken from patent publication US9012420B2, “Aptamer for chymase, and use thereof” (Ribomic Inc., priority 2009, dated 2015).

What was measured:
chymase [1] = target: T1, chymase (Homo sapiens, UniProt P23946 P23946:22-247); test: inhibition; angiotensin I; recombinant 0.361; conditions: tags: human skin mast cell, Calbiochem
T1 sequence: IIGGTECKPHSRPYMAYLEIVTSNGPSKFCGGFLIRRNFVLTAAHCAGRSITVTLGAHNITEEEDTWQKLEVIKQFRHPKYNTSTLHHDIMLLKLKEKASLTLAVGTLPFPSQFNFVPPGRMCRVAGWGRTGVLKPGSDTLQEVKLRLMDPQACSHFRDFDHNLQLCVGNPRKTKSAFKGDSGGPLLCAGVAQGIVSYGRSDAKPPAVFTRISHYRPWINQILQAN
Method: (§1) The total volume of solution for an enzyme reaction in the assay was set to 50 μL, and the reaction was performed in solution C buffer. First, 0.3-0.75 ng of chymase (recombinant, (manufactured by SIGMA) or native (manufactured by Calbiochem)) was diluted with solution C to give 5 μL thereof. Here, the recombinant is chymase expressed by yeast, and the native is chymase purified from human skin mast cell. The nucleic acid was serially diluted with solution C at a concentration of 0.0027-2 μM to give 25 μL thereof. The chymase solution (5 μL) and the nucleic acid solution (25 μL) were mixed, and the mixture was incubated at 37° C. for 5 min. […] The whole mixture was centrifuged at 4° C., 14000 rpm for 10 min, and the supernatant (30 μL) was used for the next fluorescence induction reaction.
(§2) The above-mentioned supernatant (30 μL) was added to a 96 well plate (black, manufactured by Costar), a solution (15 μL) of 2% o-phthalaldehyde (manufactured by SIGMA) in methanol and 0.3M NaOH solution (170 μL) were added to each well, and the mixture was incubated at room temperature for 10 min. […] The plate was set on a microplate reader SpectraMax190 (manufactured by Molecular device) and the fluorescence intensity was measured at an excitation wavelength of 355 nm and a fluorescence wavelength of 460 nm.

chymase [2] = target: T1, chymase; test: inhibition; Suc-AAPF-MCA, 37 C, solution C; conditions: tags: recombinant, expressed in yeast, SIGMA
Method: (§3) Here, Suc is a protecting succinyl group, and MCA is a 4-methylcoumaryl-7-amide group; upon cleavage of the C-terminal side of phenylalanine, AMC (7-amino-4-methyl-coumarine) is released. By detecting the fluorescence of this AMC, the enzyme activity of chymase can be determined. The assay was performed using a 96-well plate (F16 Black Maxisorp Fluoronunc, manufactured by Nunc), with a reaction mixture volume of 100 μL, in solution C as a buffer solution. First, each nucleic acid was serially diluted to 0.0027-2 μM concentrations in solution C to obtain 50 μL solutions. After 10 μL of the 1 mM substrate prepared in solution C was added thereto, the plate was set to the microplate reader SpectraMax190 (manufactured by Molecular Devices Corporation), and incubated at 37° C. for 5 minutes. Separately, 0.05 μg (or 0.005 μg) of chymase (recombinant, manufactured by SIGMA) was diluted in solution C to obtain a 40 μL chymase solution, and incubated at 37° C. for 5 minutes. The chymase solution was added to the mixture of the nucleic acid and substrate to initiate an enzyme reaction. The final chymase concentration in the reaction mixture was 16.7 nM (or 1.67 nM), the final substrate concentration being 100 μM. The plate containing the reaction mixture was set to the microplate reader SpectraMax190 (manufactured by Molecular Devices Corporation), and examined for time-dependent changes in the fluorescence intensity at 37° C. for 5 minutes (or 30 minutes) (excitation wavelength 380 nm, detection wavelength 460 nm). A linear approximation of the increase in the fluorescence of the AMC released from the substrate by chymase activity was generated, and its slope was taken as the initial velocity […]. For control, samples were treated and analyzed in the same manner in two cases: use of a 30N or 40N (a nucleotide of 30 or 40 consecutive bases represented by N; N is A, G, C or T) nucleic acid pool (negative control), and use of chymostatin, a known chymotrypsin-like serine protease inhibitor (positive control). Taking the initial reaction velocity without the nucleic acid and inhibitor (V_0) as a 100% enzyme activity, the inhibitory rate of each test substance was calculated using the following equation: […]
(§4) The chymase inhibitory activity was measured in the same manner as in Example 3.

chymase [3] = target: T1, chymase; test: inhibition; angiotensin I; recombinant 0.456; conditions: tags: human skin mast cell, Calbiochem
Method: as §1, §2

chymase (recombinant) [4] = target: T2, chymase (recombinant) (UniProt P23946 P23946:22-247); test: inhibition; SPR not determined; conditions: tags: SIGMA, expressed in yeast
T2 sequence: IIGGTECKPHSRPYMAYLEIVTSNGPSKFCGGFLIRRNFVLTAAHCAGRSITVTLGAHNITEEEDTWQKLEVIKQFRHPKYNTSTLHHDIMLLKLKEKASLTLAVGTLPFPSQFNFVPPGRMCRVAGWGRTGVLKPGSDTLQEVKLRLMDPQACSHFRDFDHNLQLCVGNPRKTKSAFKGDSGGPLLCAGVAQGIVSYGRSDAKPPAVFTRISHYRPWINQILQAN
Method: (§5) Here, Suc is a protecting succinyl group, and MCA is a 4-methylcoumaryl-7-amide group; upon cleavage of the C-terminal side of phenylalanine, AMC (7-amino-4-methyl-coumarine) is released. By detecting the fluorescence of this AMC, the enzyme activity of chymase can be determined. The assay was performed using a 96-well plate (F16 Black Maxisorp Fluoronunc, manufactured by Nunc), with a reaction mixture volume of 100 μL, in solution C as a buffer solution. First, each nucleic acid was serially diluted to 0.0027-2 μM concentrations in solution C to obtain 50 μL solutions. After 10 μL of the 1 mM substrate prepared in solution C was added thereto, the plate was set to the microplate reader SpectraMax190 (manufactured by Molecular Devices Corporation), and incubated at 37° C. for 5 minutes. […] The plate containing the reaction mixture was set to the microplate reader SpectraMax190 (manufactured by Molecular Devices Corporation), and examined for time-dependent changes in the fluorescence intensity at 37° C. for 5 minutes (or 30 minutes) (excitation wavelength 380 nm, detection wavelength 460 nm). A linear approximation of the increase in the fluorescence of the AMC released from the substrate by chymase activity was generated, and its slope was taken as the initial velocity ($Vmax$). […]
The inhibitory activity on chymase was measured in the same manner as in Example 3.

chymase (recombinant) [5] = target: T2, chymase (recombinant); test: inhibition; SPR not determined; conditions: tags: SIGMA, expressed in yeast; remark: listed apart in the source
Method: as §3, with “The chymase solution was added to the mixture of the nucleic acid and substrate to initiate an enzyme reaction. The final chymase concentration in the reaction mixture was 16.7 nM (or 1.67 nM), the final substrate concentration being 100 μM.” left out
as §4

chymase (recombinant) [6] = target: T2, chymase (recombinant); test: inhibition; SPR ++; conditions: tags: SIGMA, expressed in yeast
Method: as §3, §4

[7] = target: T3, chymase (native, human skin mast cell) (Homo sapiens, UniProt P23946 P23946:22-247); test: inhibition; angiotensin I substrate; recombinant 0.037 uM; conditions: tags: Calbiochem
T3 sequence: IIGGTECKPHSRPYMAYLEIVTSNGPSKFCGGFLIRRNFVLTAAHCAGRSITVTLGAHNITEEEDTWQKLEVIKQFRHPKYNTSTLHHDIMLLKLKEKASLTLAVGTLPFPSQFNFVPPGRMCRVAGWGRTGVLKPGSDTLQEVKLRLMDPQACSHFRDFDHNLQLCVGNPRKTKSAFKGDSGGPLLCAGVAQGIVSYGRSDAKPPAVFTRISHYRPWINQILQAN
Method: as §1, §2

chymase [8] = target: T1, chymase; test: inhibition; angiotensin I; recombinant 0.354; conditions: tags: human skin mast cell, Calbiochem
Method: as §1, §2

[9] = target: T3, chymase (native, human skin mast cell); test: inhibition; angiotensin I substrate; recombinant 0.235 uM; conditions: tags: Calbiochem, stem-loop (MFOLD)
Method: as §1, §2

chymase (recombinant) [10] = target: T2, chymase (recombinant); test: inhibition; SPR ++; 0.027 uM in Table 6; conditions: tags: SIGMA, expressed in yeast; stem-loop (MFOLD)
Method: as §5
Chymase inhibitory activity was determined in the same manner as Example 3.

chymase (recombinant) [11] = target: T2, chymase (recombinant); test: SPR; stronger than 30N; solution C; chymase preparation for SPR not specified; conditions: tags: SIGMA, expressed in yeast
Method: The binding activities against chymase of the nucleic acids shown by SEQ ID NO: 4-20 and 22-34 were determined by the surface plasmon resonance method using Biacore T100 (manufactured by GE Healthcare). The sensor chip used was the SA chip, which had streptavidin immobilized thereon. Bound thereto was about 1500 RU of a 16-nucleotide Poly dT with biotin bound to the 5' end thereof. […] 20 μL of chymase for analyte, prepared at 0.2 μM, was injected. Solution A was used as a running buffer.
The binding activities against chymase of the nucleic acids shown by SEQ ID NO: 38-48 were evaluated by the surface plasmon resonance method. In the evaluations for SEQ ID NO: 38-48, measurements were taken in the same manner as Example 1. Solution C was used as a running buffer.

chymase [12] = target: T1, chymase; test: inhibition; angiotensin I; recombinant 0.055; conditions: tags: human skin mast cell, Calbiochem
Method: as §1, §2

chymase [13] = target: T1, chymase; test: inhibition; angiotensin I; recombinant 0.274; conditions: tags: human skin mast cell, Calbiochem
Method: as §1, §2

Binder: GGGUUAGAUAGAGUUAAAAACCC (ssRNA, 2'-F U and C; 2'-OMe 1-3,7,8,10,13,16-20) [56(21)]
- IC50 (chymase [1]): 722 nM
- IC50 (chymase [2]): 45 nM

Binder: GGGUUAGAUAGAGUUAAAAACCC (ssRNA, 2'-F U and C; 5' PEG 40 kDa; 3' idT)
- IC50 (chymase [3]): 613 nM

Binder: GGGUUAGAUAGAGUUAAAAACCC (ssRNA, 2'-F pyrimidines; 5' 40 kDa branched PEG; 3' idT)
- IC50 (chymase (recombinant) [4]): 58 nM

B1: 56(27) (ssRNA)
RNA: GGGUUAGAUAGAGUUAAAAACCC
modifications: PEG-G(M)G(M)G(M)U(F)U(F)AG(M)A(M)U(F)A(M)GAG(M)U(F)U(F)A(M)A(M)A(M)A(M)A(M)C(F)C(F)C(F)-idT (M=2'-OMe, F=2'-F)
- IC50 (chymase (recombinant) [5]): 84 nM

B2: 72(2) (mixed)
mixed: GGGTTAGAUAGAGTUAAAAACCC
modifications: idT-G(M)G(M)G(M)ttAsG(M)aU(F)A(M)GAG(M)tU(F)A(M)A(M)A(M)A(M)A(M)ccc-idT (lower case DNA, s=PS)
- IC50 (chymase (recombinant) [6]): 14 nM
- IC50 [7]: 76 nM

Binder: CUAUGGUUAGAUAGAGUUAAAAACCAUAG (ssRNA, 2'-F U and C) [SEQ 55]
- IC50 (chymase [8]): 606 nM

Binder: GGGUUAGAUAGAGUUAAAAACCC (ssRNA, 2'-F pyrimidines) [SEQ 56]
- IC50 [9]: 508 nM
- IC50 (chymase (recombinant) [10]): 46 nM

B3: SEQ 39 (ssRNA)
RNA: GGGAGCAGGAGAGAGGUCAGAUGGUUACGGAUAGAGUUAAGGUAACGGUACGGCCUAUGCGUGCUAGUGUGA
modifications: 2'-F pyrimidines
- binding result (chymase (recombinant) [11]): binds

Binder: GGGUUAGAUAGAGUUAAAAACCC (ssRNA, 2'-F U and C; PS 6-7) [56(19)]
- IC50 (chymase [12]): 130 nM

Binder: GGCAGAUAGAGUUAAAGCC (ssRNA, 2'-F U and C) [SEQ 65]
- IC50 (chymase [13]): 878 nM
